Series [1] deals with HeLa Kyoto. Description: thermal stability score vs G1/S (z-score of summed log2 fold changes over temperatures); higher = more thermally stable than in G1/S.
The subject of series [2] is HeLa Kyoto. Description: solubility change mitosis vs G1/S (difference of NP-40 vs SDS log2 ratios) (log2 ratio difference); higher = more soluble in mitosis.
For series [3], the system named is HeLa Kyoto. Description: solubility in G1/S (NP-40 vs SDS abundance) (log2 ratio); higher = more soluble. As to conditions: cell cycle stage: G1/S.
[4] abbreviates: cell cycle stage: early G1 (4.5 h after nocodazole release).

The source of these data is the supplement of paper PMC5998384.
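Throughout, for solubility change mitosis vs G1/S (difference of NP-40 vs SDS log2 ratios): synchronized HeLa Kyoto cells (double thymidine block for G1/S, nocodazole release for mitosis), protein amounts in NP-40 versus SDS lysates quantified by mass spectrometry, three biological replicates.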
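Throughout, for solubility in G1/S (NP-40 vs SDS abundance): HeLa Kyoto cells arrested at G1/S by double thymidine block, proteins quantified by TMT10plex mass spectrometry in mild NP-40 versus SDS extracts, three biological replicates.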
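Throughout, for thermal stability score vs G1/S (z-score of summed log2 fold changes over temperatures): synchronized HeLa Kyoto cells, proteins quantified by TMT10plex mass spectrometry, three biological replicates, mitosis taken 0.5 h after nocodazole release, G1/S directly after double thymidine block.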

In the case of “MLLAQINRDSQGMTEFPGGGMEAQHVTLCLTEAVTVADGDNLENMEGVSLQAVTLADGSTAYIQHNSKDAKLIDGQVIQLEDGSAAYVQHVPIPKSTGDSLRLEDGQAVQLEDGTTAFIHHTSKDSYDQSALQAVQLEDGTTAYIHHAVQVPQSDTILAIQADGTVAGLHTGDATIDPDTISALEQYAAKVSIDGSESVAGTGMIGENEQEKKMQIVLQGHATRVTAKSQQSGEKAFRCEYDGCGKLYTTAHHLKVHERSHTGDRPYQCEHAGCGKAFATGYGLKSHVRTHTGEKPYRCSEDNCTKSFKTSGDLQKHIRTHTGERPFKCPFEGCGRSFTTSNIRKVHVRTHTGERPYYCTEPGCGRAFASATNYKNHVRIHTGEKPYVCTVPGCDKRFTEYSSLYKHHVVHTHSKPYNCNHCGKTYKQISTLAMHKRTAHNDTEPIEEEQEAFFEPPPGQGEDVLKGSQITYVTGVEGDDVVSTQVATVTQSGLSQQVTLISQDGTQHVNISQADMQAIGNTITMVTQDGTPITVPAHDAVISSAGTHSVAMVTAEGTEGEQVAIVAQDLAAFHTASSEMGHQQHSHHLVTTETRPLTLVATSNGTQIAVQLGEQPSLEEAIRIASRIQQGETPGLDD [ZNF143]”, the results for the thermal stability score with HeLa Kyoto [1] (setting [4]) and in the series on HeLa Kyoto [1] (cell cycle stage: mitosis) were 0.385 and 0.819, respectively. In the series on HeLa Kyoto [2], the “solubility change mitosis (log2)” value came out at 0.313. In addition, the “solubility in G1/S (log2)” value with HeLa Kyoto [3] was -0.143.

With “MLLWPLRGWAARALRCFGPGSRGSPASGPGPRRVQRRAWPPDKEQEKEKKSVICVEGNIASGKTTCLEFFSNATDVEVLTEPVSKWRNVRGHNPLGLMYHDASRWGLTLQTYVQLTMLDRHTRPQVSSVRLMERSIHSARYIFVENLYRSGKMPEVDYVVLSEWFDWILRNMDVSVDLIVYLRTNPETCYQRLKKRCREEEKVIPLEYLEAIHHLHEEWLIKGSLFPMAAPVLVIEADHHMERMLELFEQNRDRILTPENRKHCP [TK2]”, the values for the thermal stability score in the series with HeLa Kyoto [1] (setting [4]) and in the series with HeLa Kyoto [1] (cell cycle stage: mitosis) were -2.93 and -2.11, respectively. The “solubility change mitosis (log2)” value in the series on HeLa Kyoto [2] worked out at 0.0925. For the same sequence, the “solubility in G1/S (log2)” value in the series with HeLa Kyoto [3] is -0.273.

Turning to “MLRGPWRQLWLFFLLLLPGAPEPRGASRPWEGTDEPGSAWAWPGFQRLQEQLRAAGALSKRYWTLFSCQVWPDDCDEDEEAATGPLGWRLPLLGQRYLDLLTTWYCSFKDCCPRGDCRISNNFTGLEWDLNVRLHGQHLVQQLVLRTVRGYLETPQPEKALALSFHGWSGTGKNFVARMLVENLYRDGLMSDCVRMFIATFHFPHPKYVDLYKEQLMSQIRETQQLCHQTLFIFDEAEKLHPGLLEVLGPHLERRAPEGHRAESPWTIFLFLSNLRGDIINEVVLKLLKAGWSREEITMEHLEPHLQAEIVETIDNGFGHSRLVKENLIDYFIPFLPLEYRHVRLCARDAFLSQELLYKEETLDEIAQMMVYVPKEEQLFSSQGCKSISQRINYFLS [TOR3A]”, the thermal stability score was determined as 2.36 in the series on HeLa Kyoto [1] (setting [4]) and 1.03 in the series with HeLa Kyoto [1] (cell cycle stage: mitosis). In addition, the “solubility change mitosis (log2)” value with HeLa Kyoto [2] was -0.118. For the same sequence, in the series with HeLa Kyoto [3], the “solubility in G1/S (log2)” value is 0.0484.

“MNPTETKAIPVSQQMEGPHLPNKKKHKKQAVKTEPEKKSQSTKLSVVHEKKSQEGKPKEHTEPKSLPKQASDTGSNDAHNKKAVSRSAEQQPSEKSTEPKTKPQDMISAGGESVAGITAISGKPGDKKKEKKSLTPAVPVESKPDKPSGKSGMDAALDDLIDTLGGPEETEEENTTYTGPEVSDPMSSTYIEELGKREVTIPPKYRELLAKKEGITGPPADSSKPIGPDDAIDALSSDFTCGSPTAAGKKTEKEESTEVLKAQSAGTVRSAAPPQEKKRKVEKDTMSDQALEALSASLGTRQAEPELDLRSIKEVDEAKAKEEKLEKCGEDDETIPSEYRLKPATDKDGKPLLPEPEEKPKPRSESELIDELSEDFDRSECKEKPSKPTEKTEESKAAAPAPVSEAVCRTSMCSIQSAPPEPATLKGTVPDDAVEALADSLGKKEADPEDGKPVMDKVKEKAKEEDREKLGEKEETIPPDYRLEEVKDKDGKPLLPKESKEQLPPMSEDFLLDALSEDFSGPQNASSLKFEDAKLAAAISEVVSQTPASTTQAGAPPRDTSQSDKDLDDALDKLSDSLGQRQPDPDENKPMEDKVKEKAKAEHRDKLGERDDTIPPEYRHLLDDNGQDKPVKPPTKKSEDSKKPADDQDPIDALSGDLDSCPSTTETSQNTAKDKCKKAASSSKAPKNGGKAKDSAKTTEETSKPKDD [CAST]”: the thermal stability score in the series on HeLa Kyoto [1] (setting [4]) is -1.5; in the series on HeLa Kyoto [1] (cell cycle stage: mitosis), -2.61. Also, in the series with HeLa Kyoto [2], the “solubility change mitosis (log2)” value is 0.0186. Besides, the “solubility in G1/S (log2)” value in the series on HeLa Kyoto [3] was found to be 0.36.

Take “MPDIIWVFPPQAEAEEDCHSDTVRADDDEENESPAETDLQAQLQMFRAQWMFELAPGVSSSNLENRPCRAARGSLQKTSADTKGKQEQAKEEKARELFLKAVEEEQNGALYEAIKFYRRAMQLVPDIEFKITYTRSPDGDGVGNSYIEDNDDDSKMADLLSYFQQQLTFQESVLKLCQPELESSQIHISVLPMEVLMYIFRWVVSSDLDLRSLEQLSLVCRGFYICARDPEIWRLACLKVWGRSCIKLVPYTSWREMFLERPRVRFDGVYISKTTYIRQGEQSLDGFYRAWHQVEYYRYIRFFPDGHVMMLTTPEEPQSIVPRLRTRNTRTDAILLGHYRLSQDTDNQTKVFAVITKKKEEKPLDYKYRYFRRVPVQEADQSFHVGLQLCSSGHQRFNKLIWIHHSCHITYKSTGETAVSAFEIDKMYTPLFFARVRSYTAFSERPL [FBXO9]”: the results for the thermal stability score in the series on HeLa Kyoto [1] (setting [4]) and with HeLa Kyoto [1] (cell cycle stage: mitosis) were 0.568 and 0.333, respectively. Besides, the “solubility change mitosis (log2)” value in the series on HeLa Kyoto [2] turned out to be 0.156. Also, the “solubility in G1/S (log2)” value with HeLa Kyoto [3] was -0.365.

As to “MPFLHGFRRIIFEYQPLVDAILGSLGIQDPERQESLDRPSYVASEESRILVLTELLERKAHSPFYQEGVSNALLKMAELGLTRAADVLLRHGANLNFEDPVTYYTALHIAVLRNQPDMVELLVHHGADVNRRDRIHESSPLDLASEEPERLPCLQRLLDLGADVNAADKHGKTALLHALASSDGVQIHNTENIRLLLEGGADVKATTKDGDTVFTCIIFLLGETVGGDKEEAQMINRFCFQVTRLLLAHGADPSECPAHESLTHICLKSFKLHFPLLRFLLESGAAYNCSLHGASCWSGFHIIFERLCSHPGCTEDESHADLLRKAETVLDLMVTNSQKLQLPENFDIHPVGSLAEKIQALHFSLRQLESYPPPLKHLCRVAIRLYLQPWPVDVKVKALPLPDRLKWYLLSEHSGSVEDDI [ASB6]”, the thermal stability score with HeLa Kyoto [1] (setting [4]) came out at 0.0535; in the series on HeLa Kyoto [1] (cell cycle stage: mitosis), 0.637. In addition, in the series on HeLa Kyoto [2], the “solubility change mitosis (log2)” value was 0.0228. In the series with HeLa Kyoto [3], the “solubility in G1/S (log2)” value turned out to be 0.206.
